According to patent publication US20170022281A1 (AbbVie / Abbott, published 2017):

T1: cyno PRLR (Biacore antigen) (cyno, UniProt A0A2K5WXK1 25-234)
T1 construct: also called cyPRLR
T1 sequence: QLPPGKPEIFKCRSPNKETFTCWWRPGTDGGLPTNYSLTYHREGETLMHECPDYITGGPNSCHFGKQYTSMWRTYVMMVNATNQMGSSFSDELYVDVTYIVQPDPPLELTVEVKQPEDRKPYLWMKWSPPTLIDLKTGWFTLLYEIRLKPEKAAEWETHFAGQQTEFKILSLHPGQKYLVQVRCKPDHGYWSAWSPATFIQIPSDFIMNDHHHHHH

T2: murine PRLR (Biacore antigen) (murine, UniProt Q08501 20-229, limits assumed)
T2 construct: also called muPRLR
T2 sequence (looked up): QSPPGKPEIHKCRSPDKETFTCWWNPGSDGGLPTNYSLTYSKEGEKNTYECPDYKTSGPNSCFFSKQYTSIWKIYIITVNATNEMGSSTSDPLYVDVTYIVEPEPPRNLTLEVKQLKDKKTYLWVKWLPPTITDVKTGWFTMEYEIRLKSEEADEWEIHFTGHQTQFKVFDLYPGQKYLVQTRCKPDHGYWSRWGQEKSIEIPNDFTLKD

T3: human PRLR (Biacore antigen) (human, UniProt P16471 25-234, limits assumed)
T3 construct: The construct injected over captured antibody is not described (a soluble form is likely); also called huPRLR
T3 sequence: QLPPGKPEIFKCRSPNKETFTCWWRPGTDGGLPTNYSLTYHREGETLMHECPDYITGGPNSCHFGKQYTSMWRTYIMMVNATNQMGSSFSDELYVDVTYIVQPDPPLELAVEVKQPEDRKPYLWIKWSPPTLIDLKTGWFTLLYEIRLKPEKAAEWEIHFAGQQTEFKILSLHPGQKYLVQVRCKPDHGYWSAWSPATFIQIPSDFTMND

T4: cyno PRLR ECD-his6 protein (cyno)
T4 chain: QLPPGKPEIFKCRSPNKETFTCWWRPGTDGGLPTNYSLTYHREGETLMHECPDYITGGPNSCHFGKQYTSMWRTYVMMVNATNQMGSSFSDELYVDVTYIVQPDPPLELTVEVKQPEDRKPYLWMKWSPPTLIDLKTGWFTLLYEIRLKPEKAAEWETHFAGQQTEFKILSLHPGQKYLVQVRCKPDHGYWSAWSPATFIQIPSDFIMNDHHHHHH

T5: human PRLR ECD-Fc fusion protein (human, UniProt P16471 25-233)
T5 construct: not shown: Fc region (captured by goat anti-human Fc)
T5 sequence: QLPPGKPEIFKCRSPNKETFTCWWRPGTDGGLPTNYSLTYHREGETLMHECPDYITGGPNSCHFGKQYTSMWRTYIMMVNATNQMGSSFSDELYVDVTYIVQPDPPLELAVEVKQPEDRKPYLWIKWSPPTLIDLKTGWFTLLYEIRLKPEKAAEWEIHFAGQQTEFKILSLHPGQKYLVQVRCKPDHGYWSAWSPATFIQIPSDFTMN

T6: rat PRLR ECD-Fc fusion protein (rat, UniProt P05710 20-229)
T6 construct: extracellular domain; not shown: Fc region (captured by goat anti-human Fc)
T6 sequence (looked up): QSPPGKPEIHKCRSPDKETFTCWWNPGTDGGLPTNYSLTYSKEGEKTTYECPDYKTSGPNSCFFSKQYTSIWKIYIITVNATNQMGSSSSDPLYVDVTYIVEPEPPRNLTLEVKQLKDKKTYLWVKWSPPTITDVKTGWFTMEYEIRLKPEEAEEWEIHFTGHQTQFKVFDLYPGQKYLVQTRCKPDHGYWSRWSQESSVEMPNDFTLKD

T7: mouse PRLR ECD-Fc fusion protein (mouse, UniProt Q08501 20-229)
T7 construct: extracellular domain; not shown: Fc region (captured by goat anti-human Fc)
T7 sequence (looked up): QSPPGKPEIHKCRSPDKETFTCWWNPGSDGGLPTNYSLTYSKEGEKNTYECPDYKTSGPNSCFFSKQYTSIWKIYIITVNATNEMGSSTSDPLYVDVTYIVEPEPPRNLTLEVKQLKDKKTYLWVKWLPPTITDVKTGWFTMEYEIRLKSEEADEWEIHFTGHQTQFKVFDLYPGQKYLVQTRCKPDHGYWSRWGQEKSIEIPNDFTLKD

T8: human PRLR on cells (human, UniProt P16471 25-622)
T8 sequence: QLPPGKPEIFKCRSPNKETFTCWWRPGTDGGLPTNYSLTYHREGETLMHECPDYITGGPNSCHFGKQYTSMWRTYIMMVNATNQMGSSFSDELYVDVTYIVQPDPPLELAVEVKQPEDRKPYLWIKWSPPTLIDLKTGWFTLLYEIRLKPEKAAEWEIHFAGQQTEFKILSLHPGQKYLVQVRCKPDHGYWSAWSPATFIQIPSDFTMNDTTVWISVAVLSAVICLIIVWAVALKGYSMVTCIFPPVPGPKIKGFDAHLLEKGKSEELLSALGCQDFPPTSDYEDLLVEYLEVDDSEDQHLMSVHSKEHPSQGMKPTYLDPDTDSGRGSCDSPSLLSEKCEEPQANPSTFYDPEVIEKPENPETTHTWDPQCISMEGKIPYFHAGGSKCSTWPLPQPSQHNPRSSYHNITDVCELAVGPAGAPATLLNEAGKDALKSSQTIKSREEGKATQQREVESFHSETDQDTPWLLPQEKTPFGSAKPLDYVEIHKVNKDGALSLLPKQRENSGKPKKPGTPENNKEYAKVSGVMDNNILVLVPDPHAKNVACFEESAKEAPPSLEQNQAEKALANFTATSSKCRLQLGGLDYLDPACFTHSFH

T9: mouse PRLR on Baf3-mPRLR cells (mouse, UniProt Q08501 20-608)
T9 sequence (looked up): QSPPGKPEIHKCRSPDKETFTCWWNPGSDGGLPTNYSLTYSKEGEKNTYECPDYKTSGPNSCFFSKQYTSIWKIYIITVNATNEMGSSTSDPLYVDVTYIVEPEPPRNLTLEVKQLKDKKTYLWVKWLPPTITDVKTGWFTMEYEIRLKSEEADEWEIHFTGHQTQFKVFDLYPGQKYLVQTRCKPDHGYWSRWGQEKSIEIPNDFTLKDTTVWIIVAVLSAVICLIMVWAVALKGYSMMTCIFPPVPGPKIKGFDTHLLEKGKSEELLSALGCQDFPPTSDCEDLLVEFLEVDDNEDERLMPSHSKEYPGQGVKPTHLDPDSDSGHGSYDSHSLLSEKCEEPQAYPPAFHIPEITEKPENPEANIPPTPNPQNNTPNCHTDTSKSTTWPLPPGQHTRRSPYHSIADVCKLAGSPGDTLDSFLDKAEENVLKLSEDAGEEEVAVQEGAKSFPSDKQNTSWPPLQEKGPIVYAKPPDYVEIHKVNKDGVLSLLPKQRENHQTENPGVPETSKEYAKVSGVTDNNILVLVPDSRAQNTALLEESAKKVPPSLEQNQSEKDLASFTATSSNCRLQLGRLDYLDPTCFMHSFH


Tests used:
[1] = target: T1, cyno PRLR (Biacore antigen); assay: SPR Biacore
In short: (§1)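 Association rate, dissociation rate and dissociation constant were measured by surface plasmon resonance on a Biacore instrument. PRLR antigen was tested at 600 nM, 66.67 nM and 7.41 nM, a 3-point, 9-fold dilution series. Constants came from a 1:1 binding model fit (local Rmax, mass-transport term included) in Biacore T200 Evaluation Software.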

[2] = target: T2, murine PRLR (Biacore antigen); assay: SPR Biacore
In short: as §1

[3] = target: T3, human PRLR (Biacore antigen); assay: SPR Biacore
In short: as §1

[4] = target: T4, cyno PRLR ECD-his6 protein; assay: ELISA on ECD
Description: (§2) Plates were blocked for 1 hour with Superblock (Pierce) and washed (3×) with wash buffer (lx PBS (pH 7.4), 0.05% Tween 20). ECD proteins were bound to the appropriate antibody (1 hour) in binding buffer (wash buffer plus 10% Superblock), washed (3×, wash buffer), and then incubated with serial dilutions of antibodies (1 hour) in binding buffer. After washing (3×, wash buffer), secondary antibodies conjugated to HRP were bound (1 hour) in binding buffer, washed (3×, wash buffer), and incubated with TMB substrate (Pierce) to develop signal for 3-5 minutes, stopped with 2N H₂SO₄ and scanned at […]. Curves were fit with GraphPad 5 (Prizm) and EC50's were determined with curve fitting function of GraphPad 5.

[5] = target: T5, human PRLR ECD-Fc fusion protein; assay: ELISA on ECD
Description: as §2

[6] = target: T6, rat PRLR ECD-Fc fusion protein; assay: ELISA on ECD
Description: as §2

[7] = target: T7, mouse PRLR ECD-Fc fusion protein; assay: ELISA on ECD
Description: as §2

human PRLR on cells = target: T8, human PRLR on cells; assay: cell-based or functional assay
[8] = target: cyno PRLR on Baf3-cyPRLR cells (cyno); assay: cell-based or functional assay
[9] = target: T9, mouse PRLR on Baf3-mPRLR cells; assay: cell-based or functional assay

Binder | Kd [1] [nM] | koff [1] [s⁻¹] | kon [1] [M⁻¹ s⁻¹] | Kd [2] [nM] | koff [2] [s⁻¹] | kon [2] [M⁻¹ s⁻¹] | Kd [3] [nM] | koff [3] [s⁻¹] | kon [3] [M⁻¹ s⁻¹] | EC50 [4] [nM] | EC50 [5] [nM] | EC50 [6] [nM] | EC50 [7] [nM] | Baf3-hPRLR proliferation IC50 (human PRLR on cells) [µg/mL] | Baf3-cyPRLR proliferation IC50 [8] [µg/mL] | Baf3-mPRLR proliferation IC50 [9] [µg/mL]
Ab27 (antibody, human IgG1, kappa, V domains shown, humanized from Ab5; G1; also called Ab2 HC.1 and Ab2 LC.1a) VH: EVQLVQSGAEVKKPGSSVKVSCKASGYTFTSFWMHWVRQAPGQGLEWMGVIDPSDTYTNYNQKFKGRVTITADESTSTAYMELSSLRSEDTAVYYCARGDYSNWFTYWGQGTLVTVSS VL: DVVMTQTPLSLSVTPGQPASISCRSSQRLVHSNGNTYLHWYLQKPGQSPQLLIYKVSNRFSGVPDRFSGSGSGTDFTLKISRVEAEDVGVYFCSQSTHVPWTFGGGTKVEIKR | 1.56 | 0.00052 | 333000 | 38.3 | 0.00512 | 134000 | 1.25 | 0.000443 | 356000 | 0.102 | 0.17 | 0.125 | 0.185 | 0.16 | 0.22 | –
Ab37 (antibody, human IgG1, kappa, humanized from Ab7; G1; also called Ab4 HC.1 and Ab4 LC.1b) heavy: not shown light: DVVMTQTPLSLSVTPGQPASISCRSSQSLVHSNGNTYLHWYLQKPGQSPQLLIYKVSNRFSGVPDRFSGSGSGTDFTLKISRVEAEDVGVYYCSQSTHVPFTFGGGTKVEIKRTVAAPSVFIFPPSDEQLKSGTASVVCLLNNFYPREAKVQWKVDNALQSGNSQESVTEQDSKDSTYSLSSTLTLSKADYEKHKVYACEVTHQGLSSPVTKSFNRGEC | 12.3 | 0.00132 | 107000 | 1670 | 0.0687 | 41100 | 12.3 | 0.00146 | 119000 | 0.186 | 0.184 | – | – | 0.43 | 0.44 | > 30
Ab38 (antibody, human IgG1, kappa, humanized from Ab7; G1; also called Ab4 HC.1a and Ab4 LC.1) heavy: not shown light: DIVMTQTPLSLSVTPGQPASISCRSSQSLVHSNGNTYLHWYLQKPGQSPQLLIYKVSNRFSGVPDRFSGSGSGTDFTLKISRVEAEDVGVYYCSQSTHVPFTFGGGTKVEIKRTVAAPSVFIFPPSDEQLKSGTASVVCLLNNFYPREAKVQWKVDNALQSGNSQESVTEQDSKDSTYSLSSTLTLSKADYEKHKVYACEVTHQGLSSPVTKSFNRGEC | 6.04 | 0.000756 | 125000 | 994 | 0.0527 | 53000 | 6.22 | 0.000879 | 141000 | 0.264 | 0.346 | – | – | 0.42 | 0.25 | > 30
Ab26 (antibody, human IgG1, kappa, humanized from Ab5; G1; also called Ab HC.1 and Ab2 LC.1) heavy: not shown light: DIVMTQTPLSLSVTPGQPASISCRSSQRLVHSNGNTYLHWYLQKPGQSPQLLIYKVSNRFSGVPDRFSGSGSGTDFTLKISRVEAEDVGVYYCSQSTHVPWTFGGGTKVEIKRTVAAPSVFIFPPSDEQLKSGTASVVCLLNNFYPREAKVQWKVDNALQSGNSQESVTEQDSKDSTYSLSSTLTLSKADYEKHKVYACEVTHQGLSSPVTKSFNRGEC | – | – | – | – | – | – | – | – | – | 0.151 | – | 0.164 | 0.201 | 0.23 | 0.25 | –
